From patent US20170137467A1 (CHROMOTEK, published 2017)
Square brackets hold non-standard residues; d marks the D form. GABA = NCCCC(=O)O

B1: BC2 nanobody (VHH)
VHH: QVQLVESGGGLVQPGGSLTLSCTASGFTLDHYDIGWFRQAPGKEREGVSCINNSDDDTYYADSVKGRFTIFMDNAKDTVYLQMNSLKPEDTAIYYCAEARGCKRGRYEYDFWGQGTQVTVSS
notes: Alpaca VHH, 122 aa; also called BC2-Nb; BC2 nanotrap (BC2-Nb immobilized on agarose/Sepharose beads); not shown: C-terminal 6xHis-tag added by the pHEN6 vector
B2: BC2-Nb(R106E) (VHH)
VHH: QVQLVESGGGLVQPGGSLTLSCTASGFTLDHYDIGWFRQAPGKEREGVSCINNSDDDTYYADSVKGRFTIFMDNAKDTVYLQMNSLKPEDTAIYYCAEARGCKRGEYEYDFWGQGTQVTVSS
notes: Headlock mutant; immobilized on beads in the library pulldown

How the values were obtained:
MEPDRKAAVSHWQ = target: T1, MEPDRKAAVSHWQ; assay: truncated peptides of β-catenin aa 14-27 on OVA-microspheres, biotinylated BC2-Nb, streptavidin-PE
T1 construct: C-terminal truncation; also called β-catenin aa 14-26
T1 peptide: MEPDRKAAVSHWQ
Excerpt: (§1) As negative controls, microspheres comprising Ovalbumin and the Myc-peptide ([…]) covalently coupled to OVA-microspheres were used. […] Evaluation of the PE-signals were done in a Flexmap 3D (Luminex).

MEPDRKAAVSHW = target: T2, MEPDRKAAVSHW; assay: as above
T2 construct: C-terminal truncation; also called β-catenin aa 14-25
T2 peptide: MEPDRKAAVSHW
Excerpt: as §1

MEPDRKAAVSH = target: T3, MEPDRKAAVSH; assay: as above
T3 construct: C-terminal truncation; also called β-catenin aa 14-24
T3 peptide: MEPDRKAAVSH
Excerpt: as §1

MEPDRKAAVS = target: T4, MEPDRKAAVS; assay: as above
T4 construct: C-terminal truncation; also called β-catenin aa 14-23
T4 peptide: MEPDRKAAVS
Excerpt: as §1

EPDRKAAVSHWQQ = target: T5, EPDRKAAVSHWQQ; assay: as above
T5 construct: N-terminal truncation; also called β-catenin aa 15-27
T5 peptide: EPDRKAAVSHWQQ
Excerpt: as §1

DRKAAVSHWQQ = target: T6, DRKAAVSHWQQ; assay: as above
T6 construct: N-terminal truncation; also called β-catenin aa 17-27
T6 peptide: DRKAAVSHWQQ
Excerpt: as §1

RKAAVSHWQQ = target: T7, RKAAVSHWQQ; assay: as above
T7 construct: N-terminal truncation; also called β-catenin aa 18-27
T7 peptide: RKAAVSHWQQ
Excerpt: as §1

KAAVSHWQQ = target: T8, KAAVSHWQQ; assay: as above
T8 construct: N-terminal truncation; also called β-catenin aa 19-27
T8 peptide: KAAVSHWQQ
Excerpt: as §1

AAVSHWQQ = target: T9, AAVSHWQQ; assay: as above
T9 construct: N-terminal truncation; also called β-catenin aa 20-27
T9 peptide: AAVSHWQQ
Excerpt: as §1

[1] = target: T10, BC2T S8(I/L) library peptide, version 2 (N-terminal acetyl, C-terminal amide); assay: peptide library pulldown on immobilized Nb, LC-MS of supernatant; ratio vs GFP-Nb control (1 = not captured, 0 = captured)
T10 construct: Ile and Leu versions are isobaric; two versions resolved but not assigned; also called BC2TS8X: I/L2
Excerpt: (§2) In total, 12 different BC2T libraries displaying all 20 proteinogenic amino acids in one single position of the peptide were used in immunoprecipitation experiments. […] The direct comparison with the GFP-Nb made it possible to determine the quantitative degree of peptide capture without the need of labeled standards. […] The more peptide was captured the more the value approximates 0. It was not possible to discriminate between isoleucine (I) and leucine (L) peptide versions since these peptides are isobaric.
(§3) To investigate the binding specificity of the BC2T and derived mutants peptide libraries for each amino acid position of the sequence […] (SEQ ID NO:4) were synthesized with acetyl and amide groups located at the N-termini or C-termini respectively (Intavis). […] Incubations were performed in 300 μl PBS/0.01% CHAPS for 1 h on a HulaMixer (Life Technologies). Subsequent to a centrifugation step 10 μl supernatant were analyzed in a LC-MS procedure. Peptides were separated using an UltiMate3000 RSLCnano System (Thermo Scientific), composed of a C18 PepMap100μ-Precolumn (300 μm×5 mm; particle size: 5 μm; pore size: 100 Å—Thermo Scientific) and a C18 analytical column (Acclaim Rapid Separation LC (RSLC) Column: 150 mm×5 mm; particle size: 2.2 μm; pore size: 100 Å—Thermo Scientific). A step gradient was applied starting at 8% and ending after 20 min at 30% eluent B (80% acetonitrile, 20% H₂O, 0.1% formic acid).

BC2T H9G library peptide = target: T11, BC2T H9G library peptide (human); assay: as above
T11 peptide: Ac-PDRKAAVSGWQQ-NH2
Excerpt: as §2, §3

BC2T H9M library peptide = target: T12, BC2T H9M library peptide (human); assay: as above
T12 peptide: Ac-PDRKAAVSMWQQ-NH2
Excerpt: as §2, §3

[2] = target: T13, BC2T W10H library peptide (human); assay: as above
T13 construct: also called BC2TW10X: H
T13 peptide: Ac-PDRKAAVSHHQQ-NH2
Excerpt: as §2, §3

[3] = target: T14, BC2T Q11M library peptide (human); assay: as above
T14 peptide: Ac-PDRKAAVSHWMQ-NH2
Excerpt: as §2, §3

[4] = target: T15, BC2T Q11F library peptide (human); assay: as above
T15 peptide: Ac-PDRKAAVSHWFQ-NH2
Excerpt: as §2, §3

[5] = target: T16, BC2T Q11Y library peptide (human); assay: as above
T16 peptide: Ac-PDRKAAVSHWYQ-NH2
Excerpt: as §2, §3

[6] = target: T17, BC2T Q11C* library peptide (human, SMILES …); assay: as above
T17 construct: also called C(Abu)
T17 peptide: Ac-PDRKAAVSHW[GABA]Q-NH2
Excerpt: as §2, §3

[7] = target: T18, BC2T Q11D library peptide (human); assay: as above
T18 peptide: Ac-PDRKAAVSHWDQ-NH2
Excerpt: as §2, §3

BC2T S8G library peptide = target: T19, BC2T S8G library peptide (human); assay: as above
T19 construct: also called BC2TS8X: G
T19 peptide: Ac-PDRKAAVGHWQQ-NH2
Excerpt: as §2, §3

Binder	binding result (MEPDRKAAVSHWQ)	binding result (MEPDRKAAVSHW)	binding result (MEPDRKAAVSH)	binding result (MEPDRKAAVS)	binding result (EPDRKAAVSHWQQ)	binding result (DRKAAVSHWQQ)	binding result (RKAAVSHWQQ)	binding result (KAAVSHWQQ)	binding result (AAVSHWQQ)	ratio [1]	ratio (BC2T H9G library peptide)	ratio (BC2T H9M library peptide)	ratio [2]	ratio [3]	ratio [4]	ratio [5]	ratio [6]	ratio [7]	ratio (BC2T S8G library peptide)
B1	binds	binds	no binding (tested: 1 µg/ml BC2-Nb)	no binding (tested: 1 µg/ml BC2-Nb)	binds	binds	binds	no binding (tested: 1 µg/ml BC2-Nb)	no binding (tested: 1 µg/ml BC2-Nb)	–	–	–	–	–	–	–	–	–	–
B2	–	–	–	–	–	–	–	–	–	0.9	0.7	0.2	1.2	0.2	0.1	0.1	0.2	0.5	0.8
